According to patent US20190030060A1:

Legend:
[1] = biological target: Semaphorin 4D secreted by HNSCC cell lines into conditioned medium (cleaved form, ~120 KDa) (human) (UniProt Q92854); experiment: cell-based or functional assay
[2] = biological target: recombinant human Sema4D (sCD100) (Cat #310-29) (Peprotech, Rocky Hill, N.J.) (human) (UniProt Q92854); experiment: indirect ELISA, antigen coated on plate, standard curve with recombinant Sema4D, goat anti-mouse IgM-HRP

reduction in the MDSC population (CD33+ CD11b+ HLA-DR-/low) of myeloid cells cultured in HNSCC conditioned medium, flow cytometry, against isotype control mAb [1] | detection limit [2] | Substance
50% |  | anti-Sema4D antibody (clone 30/CD100) (Cat #610670) (BD Biosciences PharMingen, San Diego, Calif.)
 | 3.1 ng/mL | anti-human CD100 antibody (clone: 133-1C6; Novus Biologicals)
